We go through one molecule from patent US20230287087A1 (MAX PLANCK GESELLSCHAFT ZUR F RDERUNG DER WISSENSCHAFTEN E V, published 2023).

The target in experiment [1] is Brazilian RBD mutant (K417T, E484K, N501Y) (SARS-CoV-2, UniProt P0DTC2 319-541). The experiment is described as follows: BLI. On the technique in general: In BLI a coated tip is dipped into the sample, and binding shifts an interference pattern.
Experiment [2] has as its target South African RBD mutant (K417N, E484K, N501Y) (SARS-CoV-2, UniProt P0DTC2 319-541). The experiment is described as follows: BLI.
The target in experiment [3] is Californian RBD mutant (L452R) (SARS-CoV-2, UniProt P0DTC2 319-541). The experiment is described as follows: BLI.
Experiment [4] concerns the target Spike protein of patient-derived SARS-CoV-2 (D614G) (SARS-CoV-2, UniProt P0DTC2 14-1273). Nature of the experiment: cell-based or functional assay.
The target in experiment [5] is B.1.617.2/Delta RBD (40592-V08H90, Sino Biologicals) (SARS-CoV-2, UniProt P0DTC2 319-541). The experiment is described as follows: BLI, biotinylated VHH on streptavidin sensor, RBD in solution.
The target of experiment [6] is T1, SARS-CoV-2 spike receptor-binding domain (RBD), wild type (SARS-CoV-2, UniProt P0DTC2 319-541). The description is as above.
Experiment [7] deals with T1, SARS-CoV-2 spike receptor-binding …. The experiment is described as follows: method not stated.

B1: Re6H06 (VHH)
VHH: QVQLVESGGGLVQPGGSLRLSCAASGVTLDYYAIGWFRQAPGKEREGVSCTSSSDGSTYYADSVKGRFTISRDNAKNTVYLQMNSLKPEDTGVYYCAVVPQTYYGGKYYSQCTANGMDYWGKGTLVTVSS
A word on the Kd: it is the free concentration of one partner at which half of the binding sites on the other are occupied at equilibrium, for simple one-to-one binding. High values mean weaker binding, low ones tighter binding. In the case of B1, the Kd in experiment [1] is ≤ 0.01 nM; in experiment [2], ≤ 0.01 nM; in experiment [3], 0.05 nM; in experiment [5], ≤ 0.01 nM; in experiment [6] it was ≤ 0.01 nM; in experiment [7] it was ≤ 0.001 nM. Further, in experiment [4], the “Lowest SARS-COV-2-neutralizing concentration” value was 50 pM.
